Assay results taken from article PMC9154745.

Target: human cannabinoid receptor type 2 (CB2) (human) (UniProt P34972)
UniProt P34972, sequence (P34972 whole entry): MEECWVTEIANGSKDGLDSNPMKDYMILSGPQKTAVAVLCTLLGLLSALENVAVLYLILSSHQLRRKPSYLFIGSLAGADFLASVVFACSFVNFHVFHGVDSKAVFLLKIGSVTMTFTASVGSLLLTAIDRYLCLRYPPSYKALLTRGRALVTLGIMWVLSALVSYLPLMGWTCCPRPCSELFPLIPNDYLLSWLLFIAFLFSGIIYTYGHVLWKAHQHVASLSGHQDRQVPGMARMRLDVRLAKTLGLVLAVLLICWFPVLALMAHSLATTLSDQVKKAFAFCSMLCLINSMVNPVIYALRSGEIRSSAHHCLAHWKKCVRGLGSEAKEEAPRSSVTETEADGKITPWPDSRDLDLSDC

Substance: osteogenic growth peptide (OGP), the 5-amino-acid cellular activator derived from OGP(1-14) (from UniProt P62805 99-103)
- logEC50 of half-maximal inhibition of FSK-stimulated cAMP in CHO-hCB2 cells (bell-shaped dose-response curve, two independent experiments): -12.1
